Experimental data as given in publication PMC10733476, “OsDWARF10, transcriptionally repressed by OsSPL3, regulates the nutritional metabolism of polished rice”.

Target: T1, OsSPL3 (Oryza sativa (indica, Minghui63; stated …, UniProt A2X0Q6 1-469)
T1 sequence: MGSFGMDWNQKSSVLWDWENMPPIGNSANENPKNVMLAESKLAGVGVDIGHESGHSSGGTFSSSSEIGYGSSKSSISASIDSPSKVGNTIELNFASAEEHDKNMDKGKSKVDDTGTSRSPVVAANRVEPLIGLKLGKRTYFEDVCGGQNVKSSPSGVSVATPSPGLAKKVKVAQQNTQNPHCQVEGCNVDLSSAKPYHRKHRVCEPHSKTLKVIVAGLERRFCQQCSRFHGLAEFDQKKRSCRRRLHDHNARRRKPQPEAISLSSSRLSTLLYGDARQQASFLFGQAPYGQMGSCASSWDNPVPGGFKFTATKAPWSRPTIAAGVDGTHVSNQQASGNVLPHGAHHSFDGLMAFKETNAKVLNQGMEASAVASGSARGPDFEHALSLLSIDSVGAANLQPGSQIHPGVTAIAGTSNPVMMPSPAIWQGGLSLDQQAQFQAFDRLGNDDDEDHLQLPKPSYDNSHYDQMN
Assay: EMSA; EMSA binding buffer (as printed, probably a concentrated stock): 125 mM Tris-HCl pH 8.0, 750 mM NaCl, 25 mM MgCl2, 100 mg/mL BSA, 50% glycerol, 5 mM DTT, 125 ng/uL salmon sperm DNA; 25 C, 20 min; 6% PAGE in 0.5x TG
Settings: protein: recombinant; tags: N-terminal 6xHis (pET28A); label: 5' FAM on F strand; blunt

Binder | binding result
D10 S2 (dsDNA) DNA 1: CCACGCCCCACGTAACGTAGCGTACAGTGTACACCTGATTTCGCTCGGTC DNA 2: GACCGAGCGAAATCAGGTGTACACTGTACGCTACGTTACGTGGGGCGTGG | binds
D10 S1 (dsDNA) DNA 1: CTCACACATGCTACTGATGATGTACGTACGGACGTTACGTAGCGCGCGGG DNA 2: CCCGCGCGCTACGTAACGTCCGTACGTACATCATCAGTAGCATGTGTGAG | binds
